Results reported in paper PMC5405427.

Legend:
IBV nsp9 wild-type [1] = biological target: T1, IBV nsp9 wild-type (avian infectious bronchitis virus (IBV) …, UniProt P0C6Y3 3675-3785); assay: BLI
T1 sequence: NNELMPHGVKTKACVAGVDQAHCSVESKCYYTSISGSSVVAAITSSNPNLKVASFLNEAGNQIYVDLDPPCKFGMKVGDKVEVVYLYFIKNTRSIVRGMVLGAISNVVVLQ

IBV nsp9 wild-type [2] = biological target: T1, IBV nsp9 wild-type; assay: zone-interference gel electrophoresis

| Binder | Kd (IBV nsp9 wild-type [1]) | binding result (IBV nsp9 wild-type [2]) |
| --- | --- | --- |
| CGACUCAUGGACCUUGGCAG (ssRNA, phosphorothioate linkages at last two 3' residues (A19, G20)) [20-mer RNA, biotin (BLI)] | 28 µM | – |
| CGACTCATGGACCTTGGCAG (ssDNA) [20-mer ssDNA] | – | binds |
